From patent US7994123B2, “Hybrid proteins with ErbB4 extracellular domain and neuregulin heparin-binding domain for targeting” (Wayne State University, priority 2004, dated 2011)

Key:
[1] = tested on: erbB receptor phosphorylation (p185) in L6 cells; assay: L6 assay: block of NRG-induced erbB receptor phosphorylation (p185); assay type: cell-based; settings: preincubated with L6 muscle cells one hour, thoroughly washed before adding recombinant neuregulin
Protocol: 4. Cell culture: The L6 cells were cultured in DMEM supplemented with 10% fetal calf serum, 1 mM L-glutamine and 1000 U/ml penicillin/streptomycin at 37° C. in 10% CO2 incubator. The HEK293 cells were cultured in DMEM with 10% fetal calf serum, 1 mM L-glutamine, 2 mM sodium pyruvate, 0.1 mM non-essential amino acids, 1000 U/ml penicillin/streptomycin at 37° C. in 10% CO2 incubator. The selective antibiotics Geneticin 200 μg/ml (Gibco-Invitrogen) was added to the cell cultures of stably transfected HEK293 cells harboring the NRG antagonists. 5. Stable expression of NRG antagonists in HEK293 cells: HEK293 cells were cultured in […] flasks to 80% confluence and transfected with the four NRG antagonist constructs using lipofectamine 2000 (Invitrogen Life Science) as instructed. The antibiotic Geneticin was then added at a concentration of 400 μg/ml to the transfected HEK293 cells to select the positive antagonist transfected cells. After three weeks of Geneticin selection, the transfected HEK293 cells were diluted and plated in 96 well plates to yield single positive clones. The single clones that expressed the highest levels of antagonists (confirmed by western blot using HA antibody) were then maintained in culture media with 200 μg/ml Geneticin. Optimem I (Gibco-Invitrogen) was applied to the stably transfected NRG antagonist cell lines at 37° C. in 10% CO2 incubator for 2 days. The conditioned Optimem I media was then used in the following experiments. 6. Heparin column binding: The conditioned media containing the four NRG antagonists was passed through the heparin column to allow binding to heparin. The excessive unbound antagonist proteins were washed off by 1×PBS twice. The antagonist proteins were then eluted by increasing concentration of NaCl (0.25, 0.3, 0.4, 0.5, 0.6 and 1M). The flow through solution from each step was examined by anti-HA western blots, as described later, to determine heparin binding ability of the antagonists. 7. Purification and quantitation of recombinant proteins: The NRG antagonists were purified by anti-HA affinity matrix (3F10) (rat mAb) according to manufacturer's instructions. Briefly, the column was equilibrated with buffer containing 20 mM Tris pH 7.5, 0.1 M NaCl, 0.1 M EDTA, and each antagonist in conditioned medium was applied individually to the anti-HA affinity matrix. Excess unbound antagonist proteins were washed with 20 volume of washing buffer (20 mM Tris pH 7.5, 0.1 M NaCl, 0.1 M EDTA and 0.05% Tween 20). The bound NRG antagonists were eluted with 0.1 M glycine (pH 2). The purified recombinant protein was then quantified using a BioRad Protein Assay kit (Bio-Rad, Hercules, Calif.) 8. Silver stain: Both the conditioned media and the purified NRG antagonists were resolved on 7.5% reducing SDS-polyacrylamide gels. The gel was fixed with 30% ethanol and 10% acetic acid for 30 min. 10% ethanol and ultrapure water were used subsequently to wash the gel before staining with SilverSNAP stain solution with enhancer for 30 min. The gel was then developed using SilverSNAP developer solution with enhancer. 5% acetic acid was used to stop the reaction when the desired band intensity was reached. The gel was dried on filter paper using a vacuum gel dyer. 9. […] Positive control L6 cells were treated with 50 pM NRG alone. L6 cell lysates were prepared and run on 5% SDS-PAGE gel. Western blots of erbB receptor phosphorylation were performed using 4G10 antibody. 10. Western blot: Western blots were performed on both conditioned NRG antagonist media and the antagonist-treated L6 cells. The antagonist proteins and the L6 cells were solubilized in SDS sample buffer and boiled for 5 min as described above (see also Li et al., supra). The NRG antagonists run on 7.5% SDS-PAGE gel were detected by anti-HA mAb HA.11. Phosphotyrosine mAb 4G10 was used to detect phosphorylated erbB receptor (p185) in L6 cell western blot analysis following resolution on overrun 5% reducing SDS-polyacrylamide gels. […]

[2] = tested on: malignant masses (carcinomas, sarcomas, gliomas and medulloblastomas); assay: Anti-tumor effects in human patients; assay type: in vivo
Text: All patients to be treated have histologically confirmed malignant masses confirmed by biopsy or cytology are entered. Malignant diseases including carcinomas, sarcomas, gliomas and medulloblastomas. […] Patients in all stages of malignant disease involving any organ system are included. Staging describes both tumor and host, including organ of origin of the tumor, histologic type, histologic grade, extent of tumor size, site of metastases and functional status of the patient. For a general classification includes the known ranges of Stage 1 (localized disease) to Stage 4 (widespread metastases), see Abraham J et al., Bethesda Handbook of Clinical Oncology, Lippincott, Williams & Wilkins, Philadelphia, Pa., 2001 (or a more recent edition). Patient history is obtained and physical examination performed along with conventional tests of cardiovascular and pulmonary function and appropriate radiologic procedures. The malignant masses are visible on x-ray or CT scan and/or are measurable with calipers. They have not been undergoing any other anticancer treatment for at least one month and have a clinical KPS of at least 50.
HBD-S-B4 is administered intravenously in doses of 0.01-100 μg/kg intratumorally once every 2-7 days. Patient Evaluation: Assessment of response of the tumor to the therapy is made once per week during therapy and 30 days thereafter using CT or x-ray visualization. Depending on the response to treatment, side effects, and the health status of the patient, treatment is terminated or prolonged from the standard protocol given above. Tumor response criteria are those established by the WHO and RECIST (Response Evaluation Criteria in Solid Tumors) summarized below (e.g., Abraham et al., supra)
The efficacy of the therapy in a patient population is evaluated using conventional statistical methods, including, for example, the Chi Square test or Fisher's exact test. Long-term and short term changes in measurements are evaluated separately.

B1: B4: purified His-tagged erbB4 extracellular domain lacking the HBD (protein)
chain: VCAGTENKLSSLSDLEQQYRALRKYYENCEVVMGNLEITSIEHNRDLSFLRSVREVTGYVLVALNQFRYLPLENLRIIRGTKLYEDRYALAIFLNYRKDGNFGLQELGLKNLTEILNGGVYVDQNKFLCYADTIHWQDIVRNPWPSNLTLVSTNGSSGCGRCHKSCTGRCWGPTENHCQTLTRTVCAEQCDGRCYGPYVSDCCHRECAGGCSGPKDTDCFACMNFNDSGACVTQCPQTFVYNPTTFQLEHNFNAKYTYGAFCVKKCPHNFVVDSSSCVRACPSSKMEVEENGIKMCKPCTDICPKACDGIGTGSLMSAQTVDSSNIDKFINCTKINGNLIFLVTGIHGDPYNAIEAIDPEKLNVFRTVREITGFLNIQSWPPNMTDFSVFSNLVTIGGRVLYSGLSLLILKQQGITSLQFQSLKEISAGNIYITDNSNLCYYHTINWTTLFSTINQRIVIRDNRKAENCTAEGMVCNHLCSSDGCWGPGPDQCLSCRRFSRGRICIESCNLYDGEFREFENGSICVECDPQCEKMEDGLLTCHGPGPDNCTKCSHFKDGPNCVEKCPDGLQGANSFIFKYADPDRECHPCHPNCTQGCNGPTSHDCIYYPWTGHSTLPQHAKN
modifications: left off: small tags and cut ends
notes: purified His-tagged erbB4 extracellular domain lacking the HBD
- sustained blockade of neuregulin signaling (p185 phosphorylation) [1]: no sustained effects

B2: HBD-S-B4: prototypical fusion protein of NRG HBD, spacer and erbB4 ECD (SEQ ID NO:14) (protein)
chain: QKMKPATGLWVWVSLLVAAGTVQPSDSQSGYKKKERGSGKKPESAAGSQSPALPPRLKEMKSQESAAGSKLVLRCETSSEYSSLRFKWFKNGNELNRKNKPQNIKIQKKPGKSELRINKASLADSGEYMCKVISKLGNDSASANITIVESNEIITGMPASTEGAYVSSESPIRISVSTEGANTSSSTSTSTTGTSGTQSVCAGTENKLSSLSDLEQQYRALRKYYENCEVVMGNLEITSIEHNRDLSFLRSVREVTGYVLVALNQFRYLPLENLRIIRGTKLYEDRYALAIFLNYRKDGNFGLQELGLKNLTEILNGGVYVDQNKFLCYADTIHWQDIVRNPWPSNLTLVSTNGSSGCGRCHKSCTGRCWGPTENHCQTLTRTVCAEQCDGRCYGPYVSDCCHRECAGGCSGPKDTDCFACMNFNDSGACVTQCPQTFVYNPTTFQLEHNFNAKYTYGAFCVKKCPHNFVVDSSSCVRACPSSKMEVEENGIKMCKPCTDICPKACDGIGTGSLMSAQTVDSSNIDKFINCTKINGNLIFLVTGIHGDPYNAIEAIDPEKLNVFRTVREITGFLNIQSWPPNMTDFSVFSNLVTIGGRVLYSGLSLLILKQQGITSLQFQSLKEISAGNIYITDNSNLCYYHTINWTTLFSTINQRIVIRDNRKAENCTAEGMVCNHLCSSDGCWGPGPDQCLSCRRFSRGRICIESCNLYDGEFREFENGSICVECDPQCEKMEDGLLTCHGPGPDNCTKCSHFKDGPNCVEKCPDGLQGANSFIFKYADPDRECHPCHPNCTQGCNGPTSHDCIYYPWTGHSTLPQHAKN
- % of Patients Responding, <PR ([2]; All Patients): 5.3%
- % of Patients Responding, CR ([2]; All Patients): 59.7%
- % of Patients Responding, PR ([2]; All Patients): 11.3%
- No. of patients, Response <PR ([2]; All Patients (400 treated)): 21
- No. of patients, Response CR ([2]; All Patients (400 treated)): 239
- No. of patients, Response PR ([2]; All Patients (400 treated)): 45
- % of Patients Responding, CR + PR + <PR ([2]; Brain glioma/astrocytoma): 61%
- % of Patients Responding, CR + PR + <PR ([2]; Breast adenocarcinoma): 85%
- % of Patients Responding, CR + PR + <PR ([2]; Gastrointestinal carcinoma): 77%
- % of Patients Responding, CR + PR + <PR ([2]; Ovarian carcinoma): 82%
- overall response rate ([2]; all tumors): about 76%
- patients with objective clinical responses ([2]; all tumors): Three hundred and five
- CBC, renal and liver functions tests after treatments ([2]; human, in vivo): do not change significantly
- average duration of responses ([2]; human, in vivo): 24 months
- incidence of side effects: bloody nose ([2]; human, in vivo): 1 % of total treatments
- incidence of side effects: blurred vision ([2]; human, in vivo): < 1 % of total treatments
- incidence of side effects: chills ([2]; human, in vivo): 10 % of total treatments
- incidence of side effects: cramps ([2]; human, in vivo): < 1 % of total treatments
- incidence of side effects: diarrhea ([2]; human, in vivo): 1 % of total treatments
- incidence of side effects: dizziness ([2]; human, in vivo): < 1 % of total treatments
- incidence of side effects: fatigue ([2]; human, in vivo): < 1 % of total treatments
- incidence of side effects: feeling faint ([2]; human, in vivo): < 1 % of total treatments
- incidence of side effects: fever ([2]; human, in vivo): 10 % of total treatments
- incidence of side effects: flushing ([2]; human, in vivo): 1 % of total treatments
- incidence of side effects: gastritis ([2]; human, in vivo): < 1 % of total treatments
- incidence of side effects: headache ([2]; human, in vivo): 3 % of total treatments
- incidence of side effects: hypertension ([2]; human, in vivo): 2 % of total treatments
- incidence of side effects: hypotension ([2]; human, in vivo): 2 % of total treatments
- incidence of side effects: itching/hives ([2]; human, in vivo): 1 % of total treatments
- incidence of side effects: joint pain ([2]; human, in vivo): 2 % of total treatments
- incidence of side effects: nausea ([2]; human, in vivo): 5 % of total treatments
- incidence of side effects: pain ([2]; human, in vivo): 5 % of total treatments
- incidence of side effects: rash ([2]; human, in vivo): 2 % of total treatments
- incidence of side effects: redness on hand ([2]; human, in vivo): < 1 % of total treatments
- incidence of side effects: respiratory ([2]; human, in vivo): 3 % of total treatments
- incidence of side effects: tachycardia ([2]; human, in vivo): 2 % of total treatments
- incidence of side effects: twitching ([2]; human, in vivo): < 1 % of total treatments
- incidence of side effects: vomiting ([2]; human, in vivo): 2 % of total treatments
- time at which objective remissions are evident ([2]; human, in vivo): after four weeks of therapy
- toxicity ([2]; human, in vivo): mild short-lived fever, fatigue and anorexia not requiring treatment
- positive tumor responses ([2]; patients with breast, ovarian and gastrointestinal tumors): 77-85%
